The target in this test is human CrkII (1–304) (human) (UniProt P46108). The test is described as follows: NMR titration.
human CrkII (1–304) (human), sequence (P46108 whole entry): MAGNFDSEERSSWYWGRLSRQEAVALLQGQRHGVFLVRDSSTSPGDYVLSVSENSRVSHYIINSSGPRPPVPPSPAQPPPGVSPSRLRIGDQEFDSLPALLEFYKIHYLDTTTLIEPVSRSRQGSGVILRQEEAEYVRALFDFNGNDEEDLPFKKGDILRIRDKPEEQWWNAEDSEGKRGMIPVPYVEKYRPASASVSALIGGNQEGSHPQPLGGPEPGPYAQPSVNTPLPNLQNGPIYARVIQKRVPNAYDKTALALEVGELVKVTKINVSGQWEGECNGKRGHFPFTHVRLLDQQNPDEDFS

In turn, “human CypA (1–165) (from UniProt P62937 1-165) (enzyme; other documents disagree on this pair)” came in with a Kd of 15 µM.

For the origin of these results see article PMC4718742.
